Data: patent US20040006777A1, “Human lymphoid protein tyrosine phosphatases” (HSC Research and Development Limited Partnership, priority 1998, published 2004)
“Also recorded” adds a separate entry of the source.

B1: Lyp1: human intracellular 105 kDa lymphoid protein tyrosine phosphatase, 808 amino acids, Sequence ID NO:2 (Table 2) (protein, listed as Homo sapiens)
chain: MDQREILQKFLDEAQSKKITKEEFANEFLKLKRQSTKYKADKTYPTTVAENAKNIKKNRYKDILPYDYSRVELSLITSDEDSSYINANFIKGVYGPKAYIATQGPLSTTLLDFWRMIWEYSVLIIVMACMEYEMGKKKCERYWAEPGEMQLEFGPFSVSCEAEKRKSDYIIRTLKVKFNSETRTIYQFHYKNWPDHDVPSSIDPILELIWDVRCYQEDDSVPICIHCSAGCGRTGVICAIVDYTWMLLKDGIIPENFSVFSLIREMRTQRPSLVQTQEQYELVYNAVLELFKRQMDVIRDKHSGTESQAKHCIPEKNHTLQADSYSPNLPKSTTKAAKMMNQQRTKMEIKESSSFDFRTSEISAKEELVLHPAKSSTSFDFLELNYSFDKNADTTMKWQTKAFPIVGEPLQKHQSLDLGSLLFEGCSNSKPVNAAGRYFNSKVPITRTKSTPFELIQQRETKEVDSKENFSYLESQPHDSCFVEMQAQKVMHVSSAELNYSLPYDSKHQIRNASNVKHHDSSALGVYSYIPLVENPYFSSWPPSGTSSKMSLDLPEKQDGTVFPSSLLPTSSTSLFSYYNSHSSLSLNSPTNISSLLNQESAVLATAPRIDDEIPPPLPVRTPESFIVVEEAGEFSPNVPKSLSSAVKVKIGTSLEWGGTSEPKKFDDSVILRPSKSVKLRSPKSELHQDRSSPPPPLPERTLESFFLADEDCMQAQSIETYSTSYPDTMENSTSSKQTLKTPGKSFTRSKSLKILRNMKKSICNSCPPNKPAESVQSNNSSSFLNFGFANRFSKPKGPRNPPPTWNI
B2: Lyp-N: catalytically inactive form of Lyp1 where Cysteine 227 is replaced by Serine (protein, UniProt Q9Y2R2 1-807, looked up, variant C227S)
Tyrosine-protein phosphatase …: MDQREILQKFLDEAQSKKITKEEFANEFLKLKRQSTKYKADKTYPTTVAEKPKNIKKNRYKDILPYDYSRVELSLITSDEDSSYINANFIKGVYGPKAYIATQGPLSTTLLDFWRMIWEYSVLIIVMACMEYEMGKKKCERYWAEPGEMQLEFGPFSVSCEAEKRKSDYIIRTLKVKFNSETRTIYQFHYKNWPDHDVPSSIDPILELIWDVRCYQEDDSVPICIHSSAGCGRTGVICAIDYTWMLLKDGIIPENFSVFSLIREMRTQRPSLVQTQEQYELVYNAVLELFKRQMDVIRDKHSGTESQAKHCIPEKNHTLQADSYSPNLPKSTTKAAKMMNQQRTKMEIKESSSFDFRTSEISAKEELVLHPAKSSTSFDFLELNYSFDKNADTTMKWQTKAFPIVGEPLQKHQSLDLGSLLFEGCSNSKPVNAAGRYFNSKVPITRTKSTPFELIQQRETKEVDSKENFSYLESQPHDSCFVEMQAQKVMHVSSAELNYSLPYDSKHQIRNASNVKHHDSSALGVYSYIPLVENPYFSSWPPSGTSSKMSLDLPEKQDGTVFPSSLLPTSSTSLFSYYNSHDSLSLNSPTNISSLLNQESAVLATAPRIDDEIPPPLPVRTPESFIVVEEAGEFSPNVPKSLSSAVKVKIGTSLEWGGTSEPKKFDDSVILRPSKSVKLRSPKSELHQDRSSPPPPLPERTLESFFLADEDCMQAQSIETYSTSYPDTMENSTSSKQTLKTPGKSFTRSKSLKILRNMKKSICNSCPPNKPAESVQSNNSSSFLNFGFANRFSKPKGPRNPPPTWNI

Columns and labels:
Cbl = assay: Lyp1 transfection into COS-7 cells, Cbl immunoprecipitation, anti-phosphotyrosine blot; format: cell-based, monkey; conditions: Lyp1 transfected COS-7 cells, endogenous Cbl
Experimental: (A) Lyp immunoprecipitates from thymocytes (80×10^6 cells) stimulated with anti-CD3 were blotted with antiphsophotyrosine. A single phosphorylated band of 116 kD was detected co-immunoprecipitating with Lyp. Lyp protein loading was quantitated by anti-Lyp western blot after stripping. […] (C) Lyp1 was transfected into COS-7 cells and Cbl immunoprecipitates prepared from these and untransfected cells. Western blotting was performed with Lyp antibodies. The position of Lyp is indicted by an arrow. Cbl immunoprecipitates were also prepared and blotted with anti-phosphotyrosine (D), and then anti-Cbl after stripping.
One of the earliest events following TCR stimulation of T cells is the induction of tyrosine phosphorylation. In order to determine whether Lyp played a role in TCR signalling, human thymocytes were stimulated with anti-CD3 for various periods of time, Lyp immunoprecipitated and blotted with anti-phosphotyrosine. […] Once activated, the phosphorylation level of this protein remained constant over a period of 20 minutes. The 116 kD phosphorylated protein was identified by western blotting of Lyp immunoprecipitates from CD3 stimulated thymocytes with antibodies to various candidate proteins. […]

Syk = assay: Co-transfection of Lyp1 or Lyp-N and kinase cDNA, kinase immunoprecipitation, anti-phosphotyrosine Western blot; format: cell-based; conditions: co-transfection with Syk
Experimental: (§1) Western blotting was performed with anti-phosphotyrosine antibodies and chemiluminescent detection reagents. […] Syk was unaffected by Lyp1 (C).
(§2) Western blotting was performed with anti-phosphotyrosine antibodies and chemiluminescent detection reagents. Lyp1 reduced the tyrosine phosphorylation of Jak3 (C) while having little effect on Syk (D). No effect was seen when Syk was co-transfected with Lyp-N (D).
cDNA for the phosphatase Lyp1 and the indicated kinase, in the eucaryotic expression vector pcDNA3, were transiently transfected into either the COS-7 monkey epithelial cell line (A) or the 293T human epithelial cell line as indicated. 48 hours after transfection, cells were harvested, lysates made in 1 & NP-40 lysis buffer and immunoprecipitations performed with antibodies to the transfected kinase. Immunoprecipitates were washed, boiled in SDS sample buffer and electrophoresed on SDS-PAGE. After electro-transfer to nitrocellulose membrane, Western blotting was performed with anti-phosphotyrosine antibodies and chemiluminescent detection reagents. […] Lyp1 could also down-regulate Zap-70 after its activation by Fyn in 293-T cells (B, lanes 3 and 4). The closely related Zap family kinase Syk was also unaffected by Lyp1 (C). […]

Jak3 = assay: Co-transfection of Lyp1 and kinase cDNA in COS-7, kinase immunoprecipitation, anti-phosphotyrosine Western blot; format: cell-based; conditions: COS-7 cells
Experimental: as §2
cDNA for the phosphatase Lyp1 and the indicated kinase, in the eucaryotic expression vector pcDNA3, were transiently transfected into the COS-7 monkey epithelial cell line. 48 hours after transfection, cells were harvested, lysates made in 1% NP-40 lysis buffer and immunoprecipitations performed with antibodies to the transfected kinase. Immunoprecipitates were washed, boiled in SDS sample buffer and electrophoesed on SDS-PAGE. After electro-transfer to nitrocellulose membrane, Western blotting was performed with anti-phosphotyrosine antibodies and chemiluminescent detection reagents.

Lyp1 = target: T1, Lyp1 (Homo sapiens, UniProt Q9Y2R2); assay: In vitro phosphatase assay with 33P labelled Raytide peptide and Lyp immunoprecipitates; format: biochemical; conditions: Lyp immunoprecipitates from transfected COS cells compared to control immunoprecipitates from untransfected cells
T1 construct: made in house; host or cells: COS cells (transient transfection, pcDNA3); anti-T7 immunoprecipitate
T1 sequence (Q9Y2R2 1-807): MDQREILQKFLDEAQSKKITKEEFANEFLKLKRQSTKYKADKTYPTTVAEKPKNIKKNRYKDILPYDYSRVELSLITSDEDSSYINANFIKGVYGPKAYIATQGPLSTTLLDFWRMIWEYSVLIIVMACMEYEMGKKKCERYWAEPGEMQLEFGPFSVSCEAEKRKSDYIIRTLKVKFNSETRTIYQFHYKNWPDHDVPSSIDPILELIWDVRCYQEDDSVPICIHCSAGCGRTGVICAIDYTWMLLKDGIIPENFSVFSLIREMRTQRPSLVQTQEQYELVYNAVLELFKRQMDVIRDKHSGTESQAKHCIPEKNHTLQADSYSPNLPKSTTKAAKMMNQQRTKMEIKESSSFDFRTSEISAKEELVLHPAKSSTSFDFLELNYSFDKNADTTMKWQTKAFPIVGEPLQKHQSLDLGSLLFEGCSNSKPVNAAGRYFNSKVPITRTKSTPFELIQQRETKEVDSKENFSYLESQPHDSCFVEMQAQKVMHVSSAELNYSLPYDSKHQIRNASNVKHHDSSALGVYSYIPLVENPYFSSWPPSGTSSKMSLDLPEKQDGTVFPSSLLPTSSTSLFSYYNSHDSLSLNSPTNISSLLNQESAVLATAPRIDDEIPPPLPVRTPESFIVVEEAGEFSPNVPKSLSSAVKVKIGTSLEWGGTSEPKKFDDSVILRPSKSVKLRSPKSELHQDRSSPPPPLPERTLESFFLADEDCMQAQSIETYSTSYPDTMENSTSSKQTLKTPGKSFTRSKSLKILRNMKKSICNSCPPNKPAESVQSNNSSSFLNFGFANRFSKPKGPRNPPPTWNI
Experimental: Anti-Lyp immunoprecipitates from untransfected and pcDNA3-Lyp1 transfected cells were prepared in pervanadate free lysis buffer and incubated with ^33P labelled substrate Raytide. At the indicated time points reactions were stopped by the addition of charcoal and the free ^33P released from the peptide and now present in the supernatant measured by liquid scintillation counting.
Raytide peptide was ^33P labelled on tyrosine residues in vitro using the tyrosine kinase p60src and purified on phosphocellulose paper. Release of ^33P over time was measured in the phosphatase assay and compared to controls from untransfected cells.
Specifically, the synthetic peptide Raytide was phosphorylated according to the method described by Guan et al., (1994)(54), on tyrosine by p60src (Oncogene Science) as follows: 10 μg Raytide in 50 mM Hepes pH 7.5, 10 mM MgCl2, 0.067% mercaptoethanol, 0.05 mM ATP was incubated with 300 μCiγ^33P ATP per ml and 2 μg p60src in a final volume of 30 μl. The reaction was allowed to proceed for 30 minutes at 30° C. and was stopped by the addition of […] 10% phosphoric acid.
The sample was spotted onto two 1×1 cm sheets of P81 phophocellulose paper and extensively washed with 0.5% phosphoric acid. […]
The phosphorylated substrate was used in the phosphatase assay as described by Stueli et al (1989)(54). […] After centrifugation the free ^33P in the supernatant was measured.

Lyn kinase = assay: Effect of Lyp1 on Lyn kinase activity; format: cell-based
Ick = assay: Co-transfection of Lyp1 and src family kinases; format: cell-based; conditions: Lyp1 with src family kinases
Zap-70 = assay: Co-transfection of Lyp1 and kinase cDNA, kinase immunoprecipitation, anti-phosphotyrosine Western blot; format: cell-based
Experimental: as §1
(§3) cDNA for the phosphatase Lyp1 and the indicated kinase, in the eucaryotic expression vector pcDNA3, were transiently transfected into either the COS-7 monkey epithelial cell line (A) or the 293T human epithelial cell line as indicated. 48 hours after transfection, cells were harvested, lysates made in 1 & NP-40 lysis buffer and immunoprecipitations performed with antibodies to the transfected kinase. Immunoprecipitates were washed, boiled in SDS sample buffer and electrophoresed on SDS-PAGE. After electro-transfer to nitrocellulose membrane, Western blotting was performed with anti-phosphotyrosine antibodies and chemiluminescent detection reagents. […] Lyp1 could also down-regulate Zap-70 after its activation by Fyn in 293-T cells (B, lanes 3 and 4). The closely related Zap family kinase Syk was also unaffected by Lyp1 (C).

Fyn = assay: as above; format: cell-based; conditions: COS-7 and 293-T cells
Experimental: as §1, §3

Molecule | basal level of Cbl tyrosine phosphorylation (Cbl) | Syk tyrosine phosphorylation (Syk) | Jak3 tyrosine phosphorylation (Jak3) | 33P release from the substrate Raytide (Lyp1) | Lyn kinase activity (Lyn kinase) | Ick dephosphorylation (Ick) | Zap-70 phosphorylation after its activation by Fyn (Zap-70; 293-T cells) | Zap-70 tyrosine phosphorylation (Zap-70; COS-7 and 293-T cells) | Fyn tyrosine phosphorylation (Fyn)
B1 | reduce significantly | unaffected; also recorded: little effect; also recorded: no Syk dephosphorylation | clearly reduced; also recorded: complete dephosphorylation | seven fold increase | strongly down-regulates | no dephosphorylation | down-regulate | reduction; also recorded: complete dephosphorylation | unaffected; also recorded: no dephosphorylation
B2 | – | No effect | – | – | – | – | – | – | –
